The target in the experiment is Rat MBL-A (mannan-binding lectin A) (rat) (UniProt P19999). The experiment can be described thus: SPR, MBL immobilised, MASP-1 at 100 nM, equivalent concentrations of NaCl up to 550 mM. In general terms: SPR reads the build-up and loss of mass on a sensor chip optically.

Bounds are passed on as bounds.

Regarding “MASP-1ent, modified form of rat MASP-1 in which the zymogen cleavage site has been replaced by an enterokinase recognition site (DDDDK) (from UniProt Q8CHN8 25-704) (enzyme)”, the percent of maximal binding in the presence of NaCl (ionic strength control) was greater than 60%.

Values taken from US20120225437A1.
